From paper PMC4899734, “Selective inhibition of apicoplast tryptophanyl-tRNA synthetase causes delayed death in Plasmodium falciparum” (Scientific Reports, 2016)

T1: apicoplast tryptophanyl-tRNA synthetase (TrpRS^api, PF3D7_1251700) (Plasmodium falciparum, UniProt A0A144A140)
T1 sequence (A0A144A140 61-559): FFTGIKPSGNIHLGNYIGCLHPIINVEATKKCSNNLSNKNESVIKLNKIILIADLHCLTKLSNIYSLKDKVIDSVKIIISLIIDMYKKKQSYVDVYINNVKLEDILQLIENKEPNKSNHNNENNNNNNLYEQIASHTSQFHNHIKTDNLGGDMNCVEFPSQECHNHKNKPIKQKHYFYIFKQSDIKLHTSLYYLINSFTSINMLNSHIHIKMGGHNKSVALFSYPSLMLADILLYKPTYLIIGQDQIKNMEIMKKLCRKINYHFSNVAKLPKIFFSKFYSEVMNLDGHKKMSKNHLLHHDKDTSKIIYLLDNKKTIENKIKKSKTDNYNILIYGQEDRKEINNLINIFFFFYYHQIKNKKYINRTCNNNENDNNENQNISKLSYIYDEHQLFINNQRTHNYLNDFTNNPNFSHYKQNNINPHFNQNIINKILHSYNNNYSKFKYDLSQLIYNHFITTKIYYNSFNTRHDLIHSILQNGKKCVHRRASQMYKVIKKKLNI


Experiments:
[1] = biological target: T1, apicoplast tryptophanyl-tRNA synthetase (TrpRS^api, PF3D7_1251700); assay: radiolabelled tryptophan tRNA aminoacylation assay with purified recombinant enzyme, […] indolmycin; type: biochemical
[2] = substrate: N[C@@H](Cc1c[nH]c2ccccc12)C(=O)O; assay: steady-state aminoacylation kinetics with purified enzyme (apparent Km); type: biochemical, Plasmodium falciparum; conditions: ATP, Mg2+
[3] = substrate: Nc1ncnc2c1ncn2[C@@H]1O[C@H](COP(=O)(O)OP(=O)(O)OP(=O)(O)O)[C@@H](O)[C@H]1O; assay: as above; type: biochemical, Plasmodium falciparum; conditions: Mg2+

| Molecule | radiolabelled tryptophan tRNA aminoacylation assay with purified recombinant enz [1] | Km [2] [µM] | Vmax [2] [µmol/min] | Km [3] [µM] | Vmax [3] [µmol/min] |
| --- | --- | --- | --- | --- | --- |
| CNC1=NC(=O)[C@H]([C@H](C)c2c[nH]c3ccccc23)O1 [indolmycin] | at higher concentrations of indolmycin, tRNA^trp formation by TrpRS^api was reduced to background levels |  |  |  |  |
| apicoplast tryptophanyl-tRNA synthetase (TrpRS^api, PF3D7_1251700) (Plasmodium falciparum 3D7) (protein) FFTGIKPSGNIHLGNYIGCLHPIINVEATKKCSNNLSNKNESVIKLNKIILIADLHCLTKLSNIYSLKDKVIDSVKIIISLIIDMYKKKQSYVDVYINNVKLEDILQLIENKEPNKSNHNNENNNNNNLYEQIASHTSQFHNHIKTDNLGGDMNCVEFPSQECHNHKNKPIKQKHYFYIFKQSDIKLHTSLYYLINSFTSINMLNSHIHIKMGGHNKSVALFSYPSLMLADILLYKPTYLIIGQDQIKNMEIMKKLCRKINYHFSNVAKLPKIFFSKFYSEVMNLDGHKKMSKNHLLHHDKDTSKIIYLLDNKKTIENKIKKSKTDNYNILIYGQEDRKEINNLINIFFFFYYHQIKNKKYINRTCNNNENDNNENQNISKLSYIYDEHQLFINNQRTHNYLNDFTNNPNFSHYKQNNINPHFNQNIINKILHSYNNNYSKFKYDLSQLIYNHFITTKIYYNSFNTRHDLIHSILQNGKKCVHRRASQMYKVIKKKLNI |  | 5.3 ± 1.2 | 0.029 |  |  |
| cytosolic tryptophanyl-tRNA synthetase (TrpRS^cyt, PF3D7_1336900) (Plasmodium falciparum 3D7) (protein) KDVTPWDVNINNEEGINYNKLIKEFGCSKITENHIKRIEKLTNSKAHHFIRRGIFFSHRDLDFLLNYYEQHKCFYIYTGRGPSSLSMHLGHLIPFYFCKYLQEAFNVPLVIQLSDDEKYLFNQNYSLEYINTLTNENVKDIISVGLNPELTFIFKNTEYAGYLYPTVLSIHKKTTLNQSMNVFGFNHSDNIGKISYPSFQIAPCFSQCFPNFLGKNIPCLVPQGIDQDPYFRLSRDIAVKMALHKPVVVHSVFMPGLQGVNSKMSSTKKKKDDNGKSNSTFDHNNSVIFLTDTPEQIKNKINKYAFSGGGTTIQEHREKGGNLDKDISYQYLRYLLEDDNKLNEIGEKYKKGEMLSGEIKKILIDVLTELVLKHQEKKKSLTDEEISYFFDPNKPSLQKFKNM |  | 15.6 ± 0.6 | 0.077 | 622 ± 0.3 | 0.292 |
